Biological target: T1, mouse NR 10 (mouse, UniProt Q8K5B1 19-716)
T1 construct: In the proliferation assays it is expressed on Ba/F3 cells together with mouse OSMR, with which it forms the IL-31 receptor; also called mNR 10; IL-31RA
T1 sequence: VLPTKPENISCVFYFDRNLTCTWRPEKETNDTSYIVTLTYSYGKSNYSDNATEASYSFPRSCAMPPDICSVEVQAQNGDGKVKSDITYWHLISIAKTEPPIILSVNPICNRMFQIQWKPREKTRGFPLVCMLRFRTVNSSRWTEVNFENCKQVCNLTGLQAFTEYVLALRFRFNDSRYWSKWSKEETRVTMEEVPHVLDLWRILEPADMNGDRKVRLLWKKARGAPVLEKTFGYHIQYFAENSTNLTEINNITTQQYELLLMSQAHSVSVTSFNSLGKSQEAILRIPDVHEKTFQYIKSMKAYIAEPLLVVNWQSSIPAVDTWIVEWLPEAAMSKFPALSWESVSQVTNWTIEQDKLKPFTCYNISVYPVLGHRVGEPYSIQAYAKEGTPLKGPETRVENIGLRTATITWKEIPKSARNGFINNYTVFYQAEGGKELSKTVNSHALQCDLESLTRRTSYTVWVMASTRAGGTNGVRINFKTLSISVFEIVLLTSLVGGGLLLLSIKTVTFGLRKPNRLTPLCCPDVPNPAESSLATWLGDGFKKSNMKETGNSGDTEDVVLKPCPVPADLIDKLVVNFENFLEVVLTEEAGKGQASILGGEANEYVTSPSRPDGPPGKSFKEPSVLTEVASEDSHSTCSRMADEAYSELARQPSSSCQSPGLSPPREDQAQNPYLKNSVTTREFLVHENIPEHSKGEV
Assay: immunohistochemical staining of auricles of chronic dermatitis model mice
Source text: The expression of human NR 10 was reported to be enhanced in thickened epidermis of atopic dermatitis patients (Non-patent Document 1). Auricles of the above-described chronic dermatitis model mice were immunohistochemically stained.

B1: BM095 in which the constant region was replaced with that of human IgG (antibody, V domains shown)
VH: not shown
VL: LPVLTQPPSVSVAPGQTARITCGGNNIGSKTVYWYQQEPGQAPVLVVYDDTDRPAGIPERFSGANSGNTATLTISRVEAGDEADYYCQVWDSSTDHGVFGGGTKLTVLG
B1: binds.

Reference: patent publication US20150315280A1 (Chugai, published 2015)
